Results taken from the nanobody polyreactivity screen of Harvey et al. (2022).

Test: yeast display, Sf9 membrane polyspecificity reagent, FACS + sequencing; frameworks hold sequencing errors
Method in brief: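 After 36–48 hours of galactose induction, yeast (Saccharomyces cerevisiae BJ5465) displaying a synthetic nanobody library were stained at 4 °C for 1 hour with 10% biotinylated, detergent-solubilized Sf9 membrane reagent. Streptavidin microbeads enriched the stained cells before FACS sorting into low and high (top ~1%) gates on anti-HA and streptavidin fluorescence. Each clone's polyreactivity label reflects its gate of origin.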
In the case of “QVQLVESGGGLVEAGGSLRLSCAASGNIFVNYAMEWYRQAPGKERELVAAISWSGGSTYYADSVKGRFTISRDNAKNTVYLQINRLKAEDTAVYYCAADYTGHLYYYWVQGTQVTVSS”, the “polyreactivity (PSR sort gate)” value is reported as “low polyreactivity”. In the case of “QVQLVESGGGLVEAGGSLRLSCAASGRTFANNAMGWYRQAPGKERELVARISNSGSTNYADSVKGRFTISRDNANNTVYLQMNSLNPEDTAVYYCAARIVRLYSRYDYWGQGTQVTVSS”, the “polyreactivity (PSR sort gate)” value is reported as “low polyreactivity”. With “QVQLVESGGGLVEAGGSLRLSCAASGSIFAVNTMGWYRKAPGKERELVASITRGGSTNYADSVKGRFAISRDNAKKSVYLQMNSQKPEDSAVYYCAARPTWWYDYWGQGNQVTVSS” the “polyreactivity (PSR sort gate)” value was “high polyreactivity”. In the case of “QVQLVESGGGLVEAGGSLRLSCAASGSIFGNYALGWYRQAPGKERELVAAITSSNGNTYNADSVKGRFTISRDTAKNTVYFQMNSLKPEDTAVYYCATDSWSPYLQTIFYYWGHGTQVTVSS”, the “polyreactivity (PSR sort gate)” value is reported as “low polyreactivity”. For “QVQLVESGGGLVEAGGSLRLSCAASGSIFSYNAMGWYRQAPGKERELVAAITDGGDRTYYADSVKGRFTISRDNAKNTVYLLMNSLIPEATAVYYCAAELYSYREDYGAHFAYEYWGQGTQVTVSS”, the “polyreactivity (PSR sort gate)” value was “low polyreactivity”. For “QVQLVESGGGLVEAGGSLRLSCAASGSILYYNAMGWYRQAPGKERELVAAISTRGGSTYYADSVKGRFTSSRDNAKKTVYLQMNSLKPEDTAVYYCAADHNVIWGYYYWGQGTQVTVSS”, the “polyreactivity (PSR sort gate)” value was “high polyreactivity”. In the case of “QVQLVESGGGLVEAGGSLRLSCAASGSTFGSNAMGWYRQGPGKARELVARISKRGGSTYYADSVKGRFTISRDKAKNTVSIQINSLKPDDTAVYYCNVRSWWGYTGPYDYWRQGTQVTVSS”, the “polyreactivity (PSR sort gate)” value is reported as “high polyreactivity”. With “QVQLVESGGGLVEAGGSLRLSCAASGTFVYNAMGWYIQAPGKERELVAAISWSGSSTYADSVKGRFTISRDNAKNTVYLQMNSLKPEDTAVYYCAADGYGYNTYQQYYKKSSYWGQGTQVSVSS” the “polyreactivity (PSR sort gate)” value was “low polyreactivity”. In the case of “QVQLVESGGGLVEGGGSLRLSCAASGFTFGRYTMGWYRQATGKERELVAAISWSGGSTYYADSVKGRFTISRDNAKNTVYLQLNSLKQEDTAVYNCATRLKSVSGGYNYWGQGTQVTVSS”, the “polyreactivity (PSR sort gate)” value is reported as “high polyreactivity”. In the case of “QVQLVESGGGLVHAGCSLRLSCAASGFFFDYNAMGWYRQAPGKERELVAAISISGGGTYYADSVKGRFTISRDNAKNTVYLQKNSLKPEDTAVYYCAAAGIGGGGWGQGTQVTVSS”, the “polyreactivity (PSR sort gate)” value is reported as “low polyreactivity”. With “QVQLVESGGGLVHAGGCLRLSCAASGRNFYYYTMGWSRQEPGKERELVASISRSGDRTYYADSVKGRFTISRDYAKNTVYLQMNSLKPEDTAVYYCNAQKYPRYSRTSGRNYFFWGQGTQVTVSS” the “polyreactivity (PSR sort gate)” value was “high polyreactivity”. In the case of “QVQLVESGGGLVHAGGILRLSCAASGRTFPYYAMGWYRQAPGKERELVAAISSSGGGTYYADSVKGRFTISRDTAKNTVYLQMNSLKPEDTAVYYCNAVSYYQDSFYYWGQGTQVTVSS”, the “polyreactivity (PSR sort gate)” value is reported as “high polyreactivity”. For “QVQLVESGGGLVHAGGRLRLSCPPSGRIFSYYTMGWYRQAPGKERELVAAISRGVSTNYADSVKGRFTISRDNAKNTVYLQMNSLKPEYSAVYYCNARHTWYYKYLHEYWGQGTQVTVSS”, the “polyreactivity (PSR sort gate)” value was “high polyreactivity”. With “QVQLVESGGGLVHAGGSHRLSCAASGRTFPGYPMGWYIPAPGTERELVAGISYRGGSTYFADSVKGRFTISRDNAKNTVYLQMNSLKPEDTAVYFCARDYSRHKGDYWGQGTQGTVSS” the “polyreactivity (PSR sort gate)” value was “low polyreactivity”. For “QVQLVESGGGLVHAGGSLLLSCAASGSTLRPNAMGWYRKAPGKERELVDAISSGGSTYYADSVKGRFTISRDNAKYSVYLQMNSLKPEDTAVYSCAAASERSGYYYWGQGTQVTVSS”, the “polyreactivity (PSR sort gate)” value was “high polyreactivity”. For “QVQLVESGGGLVHAGGSLRLICAGSGFTFRGYAMGWYRQAPGKEMELVADITSGGSTYYADSVKGRFTISRDNAKNTVYLQMNSLKPEDTAVYYCAPRQRSRSRYDYWGQGTQVTVSS”, the “polyreactivity (PSR sort gate)” value was “high polyreactivity”. In the case of “QVQLVESGGGLVHAGGSLRLSCAAPGRTSRYYVMGWYRQAPGKERELVAAISKNGGSTYYADSVKGRFTISRDNAKNTVYLQMNSLKPEDTAVYFCAASYYPFSYGHGYDYWGQGTQVTVSS”, the “polyreactivity (PSR sort gate)” value is reported as “high polyreactivity”. With “QVQLVESGGGLVHAGGSLRLSCAASGFIFYYNAMGWYRHAPGKERELVAGISRSAGSTYYADSVKGRFTISRDNAKNSVYLQMNSLKPEDTAVDYCAARYLSYITGTSYYWGQVTQVTVSS” the “polyreactivity (PSR sort gate)” value was “low polyreactivity”. With “QVQLVESGGGLVHAGGSLRLSCAASGFNFIVYAMGWYRQAPGKERELVASITYSGGGTYYADSVKGRFTISRDNAKNTVYLQMNSLIPEDTAVYYCNADVSWSYSVYREYGMDYWGQGTQVTVSS” the “polyreactivity (PSR sort gate)” value was “low polyreactivity”. For “QVQLVESGGGLVHAGGSLRLSCAASGFTFAYNAMGWYRQAPGKERELVAAIRRRGGITYYADSVKGRFTISRDNAKNTVYLQMNSLKPEDTAVYYCNAVRSYPAGYDSWGQGTQVTVSS”, the “polyreactivity (PSR sort gate)” value was “low polyreactivity”. With “QVQLVESGGGLVHAGGSLRLSCAASGFTFDSNDKGWYRQAPGKERELVAAISTGGSTYYADSVKGRFTISRDNAKNTVYLQMNRLKPEDTAVYYCARDPPYPDTWYGYWGQGSQVTVSS” the “polyreactivity (PSR sort gate)” value was “low polyreactivity”. With “QVQLVESGGGLVHAGGSLRLSCAASGFTFGGYAKGWYIQAPGKERELVAAISQSGGRTYYADSVKGRFTISRDHAKNTFYLQMNSLKPEDTAVYYCAKPSTTYYQRGDYWGQGTQVTVSS” the “polyreactivity (PSR sort gate)” value was “high polyreactivity”. For “QVQLVESGGGLVHAGGSLRLSCAASGFTFGGYALGWYRQAPGKERELVAAITGSGGNTFYADSVKGRFTISRDNAKNTVYLQMNSLKPEDTAVYYCAKTWYPWSRYGYYRRYDSWGQGTQVTVSS”, the “polyreactivity (PSR sort gate)” value was “low polyreactivity”. With “QVQLVESGGGLVHAGGSLRLSCAASGFTFGGYAMGWYRQAPGIEREFVAAISSSGGRTYYADSVKRRFTISRDNAKNTVYLPMNSLKPEDTAVYDCNVGQYLRARRPVDSWGQGTQVSVSS” the “polyreactivity (PSR sort gate)” value was “high polyreactivity”. For “QVQLVESGGGLVHAGGSLRLSCAASGGTFTYYTMGWYRKAPGKERELVARISKNGGRTYYADSVKGRFTLSRDNAKNTLYLKMISLKPEDTAVYYCNAAGRPYDFSGGRTMEYWGQGTQVTVST”, the “polyreactivity (PSR sort gate)” value was “high polyreactivity”. With “QVQLVESGGGLVHAGGSLRLSCAASGIIFDDYAMGWNRQAPGKERELVAAIRSGVSTNYADSVKGRFTISRDNAKNTVYLQMNSLKPEDTAVYYCAARNTAPYFTEYDYWGQGTQVTVSS” the “polyreactivity (PSR sort gate)” value was “low polyreactivity”. For “QVQLVESGGGLVHAGGSLRLSCAASGITYSRYAMGWYRQAPGKERELVAAITWDGGRTYYADTVKGRFTISRDIAKNTVYLQMNSVKPEDTAVYYCAAGSAWWYYWGQGTQVTVSS”, the “polyreactivity (PSR sort gate)” value was “high polyreactivity”. In the case of “QVQLVESGGGLVHAGGSLRLSCAASGLIFKTYTMGWYRQAPGKEREFVAAITTSGGSTYYADSVKGRFTISRDNAKNTDYVEMNRLKPEETAVYFCAAEGYTDATQSLFYYWGQGTQVTVSS”, the “polyreactivity (PSR sort gate)” value is reported as “high polyreactivity”. With “QVQLVESGGGLVHAGGSLRLSCAASGLTFDWYTMGWYRQAPGKERELVATINSGGSTDYADSVKGRFTISRDNAKNTVYLQMNSLKPEDTAVYYCNAEYGYSGVGDDYWGQGTQVTVSS” the “polyreactivity (PSR sort gate)” value was “low polyreactivity”. In the case of “QVQLVESGGGLVHAGGSLRLSCAASGNIFKRNAMGWYRQAHGKERELVAAISGSGVRTYYADSVKGRFTISRDNAKNSVYLQMNSLKPEDTAVYYCNAEIRYSAWNWLSYEYWGQGTQVTVSS”, the “polyreactivity (PSR sort gate)” value is reported as “high polyreactivity”. With “QVQLVESGGGLVHAGGSLRLSCAASGNTFIRYAIGWYRQARGTQRELVASITKRCGSTYYADSVKGRFTISRDNAKNTVYLQMNCLKPEDTAVYYCDRGPSGTPIGNTPYGDNRYNSWGEGTQVTVSS” the “polyreactivity (PSR sort gate)” value was “low polyreactivity”. For “QVQLVESGGGLVHAGGSLRLSCAASGRIFGTNAMGWYIQAPGKERELVATITRGGGNTYYADSVKVRFTISRDHAMNTVDLQMNSLKPEDTAVYYCNVDYGVHVPPRDYWGQGTQVTVSS”, the “polyreactivity (PSR sort gate)” value was “low polyreactivity”. With “QVQLVESGGGLVHAGGSLRLSCAASGRIFQVYAMGWYRQAPGKERELVAAISARGGSTYYADSVKGRFTISRDNAKNTVYLQMNSLKPEDTAVYYCAARSAYGTQRLYYWGQGTQVTVSS” the “polyreactivity (PSR sort gate)” value was “high polyreactivity”. For “QVQLVESGGGLVHAGGSLRLSCAASGRIFTSYVMGWYRQAPAKERELVAAITRSGGSTYYADSVKGRFTISRDNAKNTVYLQMISLKPEDTAVYYCNALTRRQKGGEGGGYWGQGTQVTVSS”, the “polyreactivity (PSR sort gate)” value was “high polyreactivity”. In the case of “QVQLVESGGGLVHAGGSLRLSCAASGRIFTWNAMGWYRQAPGKERELVARISSGTRTNYADSVKGRFTISRDNAKNTVYLQMNSLKPEDTAVYYCAAGYYYGYPPRDYWGQGTQVTVSS”, the “polyreactivity (PSR sort gate)” value is reported as “high polyreactivity”. For “QVQLVESGGGLVHAGGSLRLSCAASGRIFVRNDMGCYRQAPGKERELVAAISWDGGSTYYADSVKGRFTISRDNAKNTVYLQMNSLKPEDTAVYYCATDATRPWYDYWGQGTQVTVSS”, the “polyreactivity (PSR sort gate)” value was “low polyreactivity”. In the case of “QVQLVESGGGLVHAGGSLRLSCAASGRIFYKYAMAWYRQAPGKERELVAAISTRGGSTYYADSVKWRFTISRDNAKNTVYLQMNSLKPEDTAVYYCAALSAYGYDYWGQGTQVTVSS”, the “polyreactivity (PSR sort gate)” value is reported as “high polyreactivity”. In the case of “QVQLVESGGGLVHAGGSLRLSCAASGRIFYYNAMGWYRQAPGKEREFVAAIRSSGGSTYYSDSVKGRFTISRDNAKNTVYLQMNSLKPEDTAVYYCAADFYGLGDYGVDYWGQGTQVTVSS”, the “polyreactivity (PSR sort gate)” value is reported as “low polyreactivity”. For “QVQLVESGGGLVHAGGSLRLSCAASGRIYYFNAMGWYRQAPGKERELVATITYIGGSTHYADSEKGRFTISRDNAKNTVYLQMNSLKPEVTAVYYCAVRDGKDTDTYWYGYWGQGTQVTVSS”, the “polyreactivity (PSR sort gate)” value was “low polyreactivity”. For “QVQLVESGGGLVHAGGSLRLSCAASGRTFSYYTMAWYRQAPGKERELVAAISGRGGSTYYADSVKGRFTISRDNAKNTVYLQMNSLKPEDTAVYYCNVVKQYLGGVPDFDYWGQGTQVTVSS”, the “polyreactivity (PSR sort gate)” value was “low polyreactivity”. In the case of “QVQLVESGGGLVHAGGSLRLSCAASGRTFTRNAMGWYRQAPGKERELVAAISISGGRTYYADSVKGRFTISRDNAKNTVSLQMNSLKPEDTAVYYCANVTTSKYDYDYWGQGTQVTVSS”, the “polyreactivity (PSR sort gate)” value is reported as “high polyreactivity”. In the case of “QVQLVESGGGLVHAGGSLRLSCAASGRTFYGNAMGWYRQAPGKEREFVAGISWRGGRTYYADSVKGRFTISRDNAKNTVYLQMHSLKPEDTGVYYCNARYIYTRPRPRNYWGLGTQVTVSS”, the “polyreactivity (PSR sort gate)” value is reported as “high polyreactivity”. For “QVQLVESGGGLVHAGGSLRLSCAASGRTLGGYAMGWYRQAPGKERELVAAISWNGGSTYYADSVKVRFTISRDNAKNTVYFQMNCLKPEDSAVYYCARVYSGPKAGAYDYWGQGTQVTVSS”, the “polyreactivity (PSR sort gate)” value was “high polyreactivity”.
